In this experiment the target is gp140ΔCFI B(C-HR2) ext 2F5 (HIV-1 strain HXB2 (clade B); HIV-1 strain BaL (clade B); HIV-1; HIV-1 strain 97ZA012 (clade C)) (UniProt P04578). As to the kind of experiment: ELISA on Env from transfected 293 cells. For orientation: In an ELISA, binding on a coated surface is turned into a signal by an enzyme label.

As for monoclonal antibody 2F5, the fold higher reactivity than the parental clade B gp140ΔCFI is 20 to 30 fold.

These data come from patent US20110274721A1.
